Measured values reported in the nanobody polyreactivity screen of Harvey et al. (2022).

Test: yeast display, Sf9 membrane polyspecificity reagent, FACS + sequencing; frameworks hold sequencing errors
Outline: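 Polyreactivity labels are assigned by the sorting gate from which each nanobody was recovered. The gates were low and high (top ~1%), set on anti-HA fluorescence for expression and streptavidin fluorescence for reagent binding. Before sorting, galactose-induced (36–48 hours) yeast display cells were stained for 1 hour at 4 °C with 10% biotinylated, detergent-solubilized Sf9 membrane reagent.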

| Sequence | polyreactivity (PSR sort gate) |
| --- | --- |
| QVQLVESGGGLVQAGGSLRLSCAASGRILGYNAMGWYRQAPGKERELVAAITSGGSTYYADSVKGRFTISRDNAKNTVYLQMNRLKPEDTAVYYCAKRAFSYVGGQQDRNENYYYWGQGTQVTVSS | high polyreactivity |
| QVQLVESGGGLVQAGGSLRLSCAASGRILIPYAMGWYRQAPGKEREFVAGITGSGGRTYYADSVKGRFTISRDNAKNTVYLQMNSLKPEDTAVYYCDAVYYYSPTMYYWGQGTQVTVSS | low polyreactivity |
| QVQLVESGGGLVQAGGSLRLSCAASGRILKRNSMGWYRQAPGKERELVAAITSSGGSTYADSVKGRFTISRDNEKNTVYLQMNSLKPEDTAVYYCNAGYKRPWSHKYYWGQGTQVTVSS | low polyreactivity |
| QVQLVESGGGLVQAGGSLRLSCAASGRILKVYAMGWSRQAPGKERELVAAITSGSSTYADSVKGRFTISRDNAKNTVYLQMNSLKPEDTAVYYCAAVFWVDILPGDYWGQGTQVTVSS | low polyreactivity |
| QVQLVESGGGLVQAGGSLRLSCAASGRILKWNAMGWYRQAPGKERELVAAISQSGGSTYYADSVKGRFTISRDNAKNTVYLQMNSLKPEDTAVYYCATSGDWWGFRYDYWGQGTQVTVSS | low polyreactivity |
| QVQLVESGGGLVQAGGSLRLSCAASGRILKYYAMGWYRQAPGKERELVAAISGSSGSTYYADSVKGRFTISRDNAKNTVYLQMNSLKPEDTAVYYCAAQGRDSTPHGYWGQGTQVTVSS | high polyreactivity |
| QVQLVESGGGLVQAGGSLRLSCAASGRILLRNVMGWYRQAPGKERELVAVITRTGITYYADSVKGRFTISRDNAKNTVYLQMNSLKPEDTAVYYCAAGLPKYEHDYWGQGTQVNVSS | low polyreactivity |
| QVQLVESGGGLVQAGGSLRLSCAASGRILNYYTMGWYRQAPGKERELVAAISGSDGNTYYADSVKGRFTISRDNAKNTVYLQKNSLKPEDTAVYYCSADLYDEWGQGTQVTVSS | low polyreactivity |
| QVQLVESGGGLVQAGGSLRLSCAASGRILPRNAMGWYRQAPGKERELVAAISWDGGSTYYADSVKGRFTISRDNAKNTDYLHMNSLKPEDTAVYYCATDYPSLHRGMDYWGQGTQVTVSS | low polyreactivity |
| QVQLVESGGGLVQAGGSLRLSCAASGRILPRNAMGWYRQAPGKERELVAGISSEGSTNYADSVKGRFTISRDNAKYTVYLQMNSLKPEDSAVYYCAADGVYDPNLYGYWGQGTQVNVSS | low polyreactivity |
| QVQLVESGGGLVQAGGSLRLSCAASGRILPYYAMGWYRQAPGKERELVAAITSGGSTYYADSVKGRFTISRDNAKNTVYLQMNSLKPEDTAVYYCATDVDKSLYDYWGQGTQVTVSS | low polyreactivity |
| QVQLVESGGGLVQAGGSLRLSCAASGRILRDYDMGWYRQSPGKERELVAAINWSDGSTYYADSVKGRFTISRDNAKNTVYLQMNSLKPEDPAVYYCAASRWRPLERGTTWLHDYWGQGTQVTVSS | low polyreactivity |
| QVQLVESGGGLVQAGGSLRLSCAASGRILRFYAMGWYRQAPGKERELVATISRSGGSTYYADSVKGRFTISRDNAKNTVYLQMNSLKPEDTAVYYCNAFLYARQRDRWARYDYWGQGTQVTVSS | high polyreactivity |
| QVQLVESGGGLVQAGGSLRLSCAASGRILRGYAMGWYRQAPGKERELVAAISWNGGSTYYADSVKGRFTISRDNAKNTVYLQMNSLKPEDTAVYYCAVVFNPHRYTGVLAGYDYWGQGTQVTVSS | high polyreactivity |
| QVQLVESGGGLVQAGGSLRLSCAASGRILRHNAKGWYRQAPGKERELVAAITNGGSTYYADSVKGRFTISRDNAKNTVYLQMNCLKPEDTAVYYCAARTRLAQYSRGRYRYDYWGQGTQVTLSS | high polyreactivity |
| QVQLVESGGGLVQAGGSLRLSCAASGRILRQYAMGWYRQAPGKERELVARISYSGGSTYYADSVKGRFTISRDNAKNTVYLQMNSLKPEDTAVYYCAARRPYKYDYWGQGTQVTVSS | high polyreactivity |
| QVQLVESGGGLVQAGGSLRLSCAASGRILRVNAMGWYRQAPGKERELVATITFRGGSTYYADSVKGRCTISRDNAKNTVYLQMNSLKPEDTAVYSCAKVIYRYNETYDYWGQGTQVTVSS | high polyreactivity |
| QVQLVESGGGLVQAGGSLRLSCAASGRILRYNALGWYRQAPGTERELVASISGNGGSTYYADSVKGRVTISRDNAKNTVYLQMNSLKPEDTALYYCNKYYYSSRGQKEYDYWGQGTQVTVSS | low polyreactivity |
| QVQLVESGGGLVQAGGSLRLSCAASGRILRYNAMGCDRQAPGKERELVASISGNGGSTYYADSVKGRFTISRDNAKNTVYLQMNSLKPEDTAVYYCNKYSYSSRGQKEYDYWGQGTQVTVSS | low polyreactivity |
| QVQLVESGGGLVQAGGSLRLSCAASGRILRYNAMGWYRQAPGKERELVASISGNGGSTYYADSVKGRFTISRDNAKNTVYLQMKSLKPEDTAVYYCNKYYYSSRGQKEYDYWGQGTQVTVSS | low polyreactivity |
| QVQLVESGGGLVQAGGSLRLSCAASGRILSFYVMGWYRQAPGKERELVAAIRRGGSTYYADSVKGRFTISRDNAKNTVYLQMNSLKPEDTAVYYCNARQRPPPYYYWGQGTQVTVSS | high polyreactivity |
| QVQLVESGGGLVQAGGSLRLSCAASGRILSGNAMGWYRQAPGKERELVAAITNAAITKYADSVKGRFTISRDNAKNTVYLQMNSLKPEDTAVYYCATDRYAYKLYDYWGQGTQVTVSS | low polyreactivity |
| QVQLVESGGGLVQAGGSLRLSCAASGRILSGYTMGGYRQAPGKERELVAAINWRGGTTYYADSVKGRFTISRDNAKHTVYLQMNSLKPEDTAVYYCDADYYYQAGFYYWGQGTQVTVSS | low polyreactivity |
| QVQLVESGGGLVQAGGSLRLSCAASGRILSPYAMGWYRQAPGKERELVAVINTSGGRTYYADSVKGRFTISRDNAKNTVYLQMNSLKPEDTAVYYCAARERKVQYDYWGQGTQVTVSS | high polyreactivity |
| QVQLVESGGGLVQAGGSLRLSCAASGRILSTYARGWYRQAPGKETELVAAITRTSGSTYYADSVKGRFTISRDNAKNTVYLQMNSLKPEDTAVDYCAADTWLITWSGQYNSWGQGTQVTVSS | low polyreactivity |
| QVQLVESGGGLVQAGGSLRLSCAASGRILSYYPMGWYRQAPGKERELVAVIRRGASTYADSVKGRFTISRDNAKKTVYLQMNILKPEDTAVYYCAAADRDYTTFRYDYWGQGTQVTVSS | low polyreactivity |
| QVQLVESGGGLVQAGGSLRLSCAASGRILTLNAMGWYRPAPGKERELVASIRSTGRTYYADSVKWRFTISRDNAMNTVYLQMNSLKPEDTAVYYCAADTRYRYGAYPYYEYDYWGQGTQVTVSS | low polyreactivity |
| QVQLVESGGGLVQAGGSLRLSCAASGRILTYNTMGWYRQAPGKERELVAAITWRGGSTYYADSVKGRFTISRDNAKNTVYLQMNSLKPEDTAVYYCAKYVAFHYKQYDFNWGQGTQVTVSS | high polyreactivity |
| QVQLVESGGGLVQAGGSLRLSCAASGRILVHNAMGWYRQAPGKERELVAAITWSGGSTYYADSVKGRFTISRDNAKNTFYLQMNSLKPEDTAVYYCAAEQWRYDGSFTGYGYWGQGTQVTVSS | low polyreactivity |
| QVQLVESGGGLVQAGGSLRLSCAASGRILVKNTMGWYRQAPGKERELVAAITSAGNTYYADSVKGRFTITRDNAKNSVYFQMNSLTPEATAVYYCAARNRTFFQPTYYYWGQGTQVTVSS | high polyreactivity |
